Results from patent US11680267B2, “Co-regulatory sequences based on tetracycline and Cumate” (Shenzhen Eureka Biotechnology Co., Ltd., priority 2020, dated 2023).

Assays:
Assay type in all cases: cell-based
293T-rtTA3G-CymR cells [1] = assay: Luciferase assay, transient transfection, DOX and Cumate vs no inducer (Example 3), rtTA3G cells
Experimental: (§1) 293T cells were seeded at 1.5E+06 cells per 60 mm culture dish, and cultured in DMEM (Sigam, D6429) complete medium supplemented with 10% FBS (ExCell, 11H116) at 37° C. and 5% CO 2. After 24 hours of culture, transfection was carried out according to the PEI method. During transfection, 500 μL of transfection reagent which contained 5.5 ug of total plasmid was added to each 60 mm culture dish, and the mass ratio of total plasmid to PEI MAX (Polysciences, 24765-1) was 1:4. The transfection was carried out according to the PEI method, wherein the amount of total plasmid was 5.5 μg. The transfection was performed with plasmids 19BF074:18BF019 at a molar ratio of 10:1 to obtain 293T-rtTAadv-CymR cells; and the transfection was performed with plasmids 19BF075:18BF019 at a molar ratio of 10:1 to obtain 293T-rtTA3G-CymR cells. The plasmid and PEI MAX were mixed uniformly, and then put into a culture dish after standing for 15 minutes. 3 hours after transfection, the medium was changed to a complete DMEM medium, and the transfection operation was completed. After 24 hours of transfection, the cells were digested with trypsin and all seeded in a 100 mm culture dish (Corning, 430167), and 200 μg/ml of hygromycin (Sangon Biotech A600230-0001) drug screening was performed for at least three passages. After the growth of cells under the pressure of drug screening was consistent with that of the original 293T cells, the following experiments were performed.
(§2) In Tet-On inducible expression system, the induced transcription activity and the leaky transcription activity were comprehensively affected by the TetO operator linking sequence of the TRE response element and the minimal promoter sequence, as well as different mutants of the transactivator rtTA. In addition, the transport and stability of messenger ribonucleic acid may be enhanced by linking a spliceable intron sequence downstream of the 3′ end of the response element and upstream of the 5′ end of the regulated nucleic acid fragment of interest, but the induced transcription activity and leaky transcription activity of response element of the inducible expression system may also be affected. Based on this, the optimal design scheme of complex response element was determined in this Example based on the induced expression level and the ratio of induced/leaky expression level of Luciferase gene under the combination of the following conditions: (1) Tet-On and Cumate complex response elements TREadvCuO and TRE3GCuO designed based on the TREadv and TRE3G response element sequences; (2) whether an intron was linked; (3) being regulated by the transactivator rtTAadv or rtTA3G. A total of 8 design schemes were compared in this Example: TREadv (18BF232), TREadvCuO (18BF233), TRE3G (18BF234), TRE3GCuO (18BF235), TREadv-BGI (18BF240, wherein the response element was TREadv, and a human β-globulin intron was linked between the 3′ end of the response element and the 5′ end of the Luciferase gene), TREadvCuO-BGI (18BF241, wherein the response element was TREadvCuO, and a human β-globulin intron was linked between the 3′ end of the response element and the 5′ end of the Luciferase gene), TRE3G-BGI (18BF236, wherein the response element was TRE3G, and a human β-globulin intron was linked between the 3′ end of the response element and the 5′ end of the Luciferase gene) and TRE3GCuO-BGI (18BF237, wherein the response element was TRE3GCuO, and a human β-globulin intron was linked between the 3′ end of the response element and the 5′ end of the Luciferase gene). The promoter CMV-BGI (18BF229, wherein the promoter was CMV, and a human β-globulin intron was linked between the 3′ end of the CMV promoter and the 5′ end of the Luciferase gene) was used as a positive control. […]

293T-rtTA3G-CymR cells [2] = assay: Luciferase fluorescence intensity assay, transient transfection, both DOX and Cumate vs DOX alone (Example 2)
Description: The experiment described in the present Example is to study and verify the effect of the position and copy number of the CuO operator in the Tet-On and Cumate complex response element on the induced expression level and non-induced leaky expression level of the complex response element, and to optimize and confirm the optimal position and copy number of the CuO operator. In the present Example, based on the 7×TetO sequence in the TRE3G response element and the minimal promoter sequence #1 (SEQ ID NO: 25), the response elements TRE3GCuO14 (10-317 bp in SEQ ID NO: 8), TRE3GCuO30 (SEQ ID NO: 28), TRE3GCuO50 (SEQ ID NO: 23) and TRE3GCuO100 (10-403 bp in SEQ ID NO: 10) were designed by linking a CuO operator sequence at 10 bp to 100 bp downstream of the TATA box (at 14 bp, 30 bp, 50 bp and 100 bp downstream of the TATA box, respectively), and a Luciferase reporter gene sequence was linked downstream of the 3′ end of the above response elements, to construct plasmids 18BF251, 18BF252, 18BF235 and 18BF253. Further, in order to study the effect of multiple copies of CuO operators, 2, 4 and 6 copies of CuO operator sequences were respectively inserted at 50 bp downstream of the TATA box, to design the response elements TRE3GCuO2x (10-411 bp in SEQ ID NO: 11), TRE3GCuO4x (10-527 bp in SEQ ID NO: 12) and TRE3GCuO6x (10-643 bp in SEQ ID NO: 13), and then a Luciferase reporter gene sequence was linked downstream of 3′ end of the above response elements to construct plasmids 18BF254, 18BF255 and 18BF256. In 293T-rtTA3G-CymR cells stably expressing rtTA3G and CymR genes, the above plasmids were transiently transfected, and the optimal position and number of CuO operator were validated by measuring the luciferase […] value of samples added with both DOX and Cumate inducers and that of the control added with the DOX inducer only. The specific experimental methods were as follows:
as §1
The 293T-rtTA3G-CymR cells were seeded in a 96-well plate (Corning 3916) at 2.5E+04 cells per well, and the medium was 100 microliters of DMEM complete medium. […]

293T-rtTAadv-CymR cells = assay: Luciferase assay, transient transfection, DOX and Cumate vs no inducer (Example 3), rtTAadv cells
Experimental: as §1, §2

[3] = 1 ug/ml DOX and 200 ug/ml Cumate

B1: TRE3GCuO: Tet-On (7xTetO of TRE3G) and Cumate complex response element, CuO 50 bp behind the TATA box (SEQ ID NO: 23) (nucleic acid)
DNA: TCCCTATCAGTGATAGAGAACGTATGAAGAGTTTACTCCCTATCAGTGATAGAGAACGTATGCAGACTTTACTCCCTATCAGTGATAGAGAACGTATAAGGAGTTTACTCCCTATCAGTGATAGAGAACGTATGACCAGTTTACTCCCTATCAGTGATAGAGAACGTATCTACAGTTTACTCCCTATCAGTGATAGAGAACGTATATCCAGTTTACTCCCTATCAGTGATAGAGAACGTATTAGGCGTGTACGGTGGGCGCCTATAAAAGCAGAGCTCGTTTAGTGAACCGTCAGATCGCCTGGAGCAATTCCACATACAAACAGACCAGATTGTCTGTTTGTT
modifications: TRE3GCuO50 response element sequence
- increase of induced/leaky expression ratio of TRE3GCuO over TREadvCuO (293T-rtTA3G-CymR cells [1]; 293T-rtTA3G-CymR cells): 37.6%
- induced expression level as % of the induced expression level of TRE3G (293T-rtTA3G-CymR cells [1]; 293T-rtTA3G-CymR cells / regulation of rtTA3G): 61.8%
- induced expression level (293T-rtTA3G-CymR cells [1]; 293T-rtTA3G-CymR cells, 1 ug/ml DOX and 200 ug/ml Cumate): 4.24E+06 RLU
- induced expression level as % of that of the single regulatory response element (293T-rtTA3G-CymR cells [1]; 293T-rtTA3G-CymR cells, DOX and Cumate): 61.8%
- induced/leaky expression ratio (293T-rtTA3G-CymR cells [1]; 293T-rtTA3G-CymR cells, DOX and Cumate vs no inducer): 2635 times
- induced expression level as % of the induced expression level of TRE3G response element (293T-rtTA3G-CymR cells [2]; [3]): 66.0%
- ratio of induced/leaky expression level based on Cumate inducible expression system, relative to that of TRE3G response element (293T-rtTA3G-CymR cells [2]; DOX and Cumate vs DOX only): 2.81 times
- induced expression level (293T-rtTA3G-CymR cells [2]; transient transfection, 1 ug/ml DOX and 200 ug/ml Cumate, 24 hours after transfection): 4.53E+06 RLU
- increase of induced/leaky expression ratio of TRE3GCuO over TREadvCuO (293T-rtTAadv-CymR cells): 16.4%
- induced expression level as % of the induced expression level of TRE3G (293T-rtTAadv-CymR cells): 50.4%
- induced expression level (293T-rtTAadv-CymR cells; [3]): 3.4E+06 RLU
- induced expression level as % of that of the corresponding TRE3G or TREadv single regulatory response element (293T-rtTAadv-CymR cells; DOX and Cumate): 50.4%
- induced/leaky expression ratio (293T-rtTAadv-CymR cells; DOX and Cumate vs no inducer): 1565 times
